Experimental findings from US20120316071A1 (published 2012) are described below.

Assay [1] addresses T1, rHuman EGF R/Fc Chimera, CF (R&D Systems Cat#344-ER) (human, UniProt P00533 25-645).
T1 construct: Bought recombinant protein; also called epidermal growth factor receptor; Fc part of the bought chimera not given
Kind of assay: ECL multispot (MSD), 20 nM Fab.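 Also: purified Fab binding to antigens on multispot plates, read by electrochemiluminescence with a TAG-labelled detection antibody, 1 h Fab incubation at 20 °C, signal expressed relative to each well's blank.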

For assay [2], the target named is T2, rHuman IGF-1 sR, (IGF-1 sR), CF (R&D Systems Cat#391-GR) (human, UniProt P08069 31-932).
T2 construct: Bought recombinant soluble receptor; also called insulin-like growth factor-1 soluble receptor
Nature of the assay: ECL multispot (MSD), 20 nM Fab.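 Also: purified Fab binding to antigens on multispot plates, read by electrochemiluminescence with a TAG-labelled detection antibody, 1 h Fab incubation at 20 °C, signal expressed relative to each well's blank.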

The target in assay [3] is T3, rHuman Erythropoietin R/Fc Chimera, CF (R&D Systems Cat#963-ER) (human, UniProt P19235 25-250).
T3 construct: Bought recombinant protein; also called EPO R; EPO R/Fc; Fc part of the bought chimera not given
T3 sequence (looked up): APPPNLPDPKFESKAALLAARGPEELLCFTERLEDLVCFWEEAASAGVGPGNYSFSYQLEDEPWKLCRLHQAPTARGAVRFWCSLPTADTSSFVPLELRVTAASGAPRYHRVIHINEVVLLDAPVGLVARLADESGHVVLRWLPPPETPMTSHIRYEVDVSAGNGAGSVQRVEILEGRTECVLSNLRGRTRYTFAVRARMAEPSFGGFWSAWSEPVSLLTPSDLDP
Kind of assay: ECL multispot (MSD), 20 nM Fab.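 Also: purified Fab binding to antigens on multispot plates, read by electrochemiluminescence with a TAG-labelled detection antibody, 1 h Fab incubation at 20 °C, signal expressed relative to each well's blank.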

The target of assay [4] is T4, Recombinant Human DLL4 (R&D Systems Cat#1506-D4/CF) (human, UniProt Q9NR61 27-524).
T4 construct: Bought recombinant protein; also called delta-like protein 4; rHuman DLL4
Kind of assay: ECL multispot (MSD), 20 nM Fab.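 Also: purified Fab binding to antigens on multispot plates, read by electrochemiluminescence with a TAG-labelled detection antibody, 1 h Fab incubation at 20 °C, signal expressed relative to each well's blank.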

For assay [5], the target named is T5, rHuman ErbB2/Fc Chimera, CF (R&D Systems Cat#1129-ER) (human, UniProt P04626 23-652).
T5 construct: Bought recombinant protein; also called human epidermal growth factor 2 receptor; Fc part of the bought chimera not given
Kind of assay: ECL multispot (MSD), 20 nM Fab.

The target in assay [6] is T6, rHuman CD44/Fc Chimera, CF (R&D Systems Cat#3660-CD) (human, UniProt P16070 21-220).
T6 construct: Bought recombinant protein; Fc part of the bought chimera not given
Kind of assay: ECL multispot (MSD), 20 nM Fab.

In assay [7] the target is T7, rHuman P-Cadherin/Fc Chimera, CF (R&D Systems Cat#861-PC) (human, UniProt P22223 108-654).
T7 construct: Bought recombinant protein; Fc part of the bought chimera not given
Kind of assay: ECL multispot (MSD), 20 nM Fab.

Assay [8] deals with T8, rHuman Notch-1/Fc Chimera, CF (R&D Systems Cat#3647-TK) (human, UniProt P46531 19-526).
T8 construct: Bought recombinant protein; Fc part of the bought chimera not given
Kind of assay: ECL multispot (MSD), 20 nM Fab.

For assay [9], the target named is T9, rHuman Erythropoietin R/Fc Chimera, CF (R&D Systems Cat#963-ER) (human, UniProt P19235 25-250).
T9 construct: Bought recombinant protein; also called EPO R; EPO R/Fc; Fc part of the bought chimera not given
T9 sequence (looked up): T3 sequence (looked up)
Nature of the assay: ECL multispot (MSD) binding assay, antigen spotted on plate, Fab 0.04 uM.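 Also: purified Fab incubated 1 h at 20 °C on antigen spots, detected via TAG-labelled antibody, ECL read against each well's blank, with signal-to-blank of at least 4 scored as binder.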

Assay [10] addresses T10, rHuman CD44/Fc Chimera, CF (R&D Systems Cat#3660-CD) (human, UniProt P16070 21-220).
T10 construct: Bought recombinant protein; Fc part of the bought chimera not given
Described as above.

In assay [11] the target is T11, rHuman P-Cadherin/Fc Chimera, CF (R&D Systems Cat#861-PC) (human, UniProt P22223 108-654).
T11 construct: Bought recombinant protein; Fc part of the bought chimera not given
Described as above.

The target in assay [12] is T12, Recombinant Human DLL4 (R&D Systems Cat#1506-D4/CF) (human, UniProt Q9NR61 27-524).
T12 construct: Bought recombinant protein; also called delta-like protein 4; rHuman DLL4
Described as above.

In assay [13] the target is T13, Recombinant Human DLL4 (R&D Systems Cat#1506-D4/CF) (human, UniProt Q9NR61 27-524).
T13 construct: also called delta-like protein 4; rHuman DLL4
Kind of assay: ELISA, DLL4 coated on plate, Fab at 100 nM, absorbance at 450 nm.

Assay [14] has as its target T14, rHuman EGF R/Fc Chimera, CF (R&D Systems Cat#344-ER) (human, UniProt P00533 25-645).
T14 construct: Bought recombinant protein; also called epidermal growth factor receptor; Fc part of the bought chimera not given
Kind of assay: ECL multispot (MSD) binding assay, antigen spotted on plate, Fab 0.04 uM.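 Also: purified Fab incubated 1 h at 20 °C on antigen spots, detected via TAG-labelled antibody, ECL read against each well's blank, with signal-to-blank of at least 4 scored as binder.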

Assay [15] concerns the target T15, Recombinant Human DLL4 (R&D Systems Cat#1506-D4/CF) (human, UniProt Q9NR61 27-524).
T15 construct: bought recombinant protein; also called rHuman DLL4; delta-like protein 4
Kind of assay: ELISA titration, 3-fold dilutions from 20 nM Fab.

Where a chain is given by its changes, count along the chain named. Names may count otherwise.

B1: Fab VH3-23_IGHD2-21*01>3_IGHJ6*01 H100E/S108P/Y113G (EPG) Y109D & V2-13_IGLJ2*01 (Fab, V domains shown)
VH: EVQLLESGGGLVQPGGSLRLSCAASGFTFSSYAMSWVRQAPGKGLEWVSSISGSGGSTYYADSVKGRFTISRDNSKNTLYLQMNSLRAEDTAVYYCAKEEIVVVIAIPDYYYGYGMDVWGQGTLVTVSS
VL: SSELTQDPAVSVALGQTVRITCQGDSLRSYYASWYQQKPGQAPVLVIYGKNNRPSGIPDRFSGSSSGNTASLTITGAQAEDEADYYCNSRDSSGNHLVVFGGGTKLTVL
notes: Fab; NNK mutant of the EPG heavy chain; CH1 (tags) and lambda CL come from the vectors
In the case of B1, the “ECL signal ratio (column head gives no unit)” value in assay [1] is 1.4; in assay [2], 1.4; in [3], 2; in assay [4], 1.4; in [5], 1.3; in [6], 1. Further, the “ECL signal ratio (column head gives no unit)” value in assay [7] was found to be 1.8; in [8] it was 1.3.

B2: Fab VH3-23_IGHD2-21*01>3_IGHJ6*01 H100E/S108P/Y113G (EPG) Y109L & V2-13_IGLJ2*01 (Fab, V domains shown)
VH: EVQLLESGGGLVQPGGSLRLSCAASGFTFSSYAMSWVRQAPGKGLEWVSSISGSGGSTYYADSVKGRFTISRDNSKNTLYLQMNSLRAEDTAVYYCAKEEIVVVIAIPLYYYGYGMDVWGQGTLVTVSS
VL: B1 VL
notes: as for B1
For the molecule B2, the “ECL signal ratio (column head gives no unit)” value was determined as 1.7 in assay [2]; 22.1 in [3]; 2 in assay [4]; 1.6 in assay [6]; 4 in [7]; 1.9 in assay [8].

B3: Fab VH3-23_IGHD2-21*01>3_IGHJ6*01 H100E/S108P/Y113G (EPG) Y109H & V2-13_IGLJ2*01 (Fab, V domains shown)
VH: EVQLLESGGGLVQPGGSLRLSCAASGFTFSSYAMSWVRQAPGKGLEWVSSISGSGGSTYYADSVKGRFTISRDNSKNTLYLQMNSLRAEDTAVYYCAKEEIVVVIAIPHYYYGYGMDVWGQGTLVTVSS
VL: B1 VL
notes: as for B1
As for B3, the “ECL signal ratio (column head gives no unit)” value is 1.4 in [1]; 1.2 in assay [2]; 18.3 in assay [3]; 1.4 in assay [4]; 1.7 in [5]; 1.1 in assay [6]. Also, the “ECL signal ratio (column head gives no unit)” value in [7] came out at 3.9; in [8], 1.2.

B4: Fab VH3-23_IGHD2-21*01>3_IGHJ6*01 H100E/S108P/Y113G (EPG) Y109Q & V2-13_IGLJ2*01 (Fab, V domains shown)
VH: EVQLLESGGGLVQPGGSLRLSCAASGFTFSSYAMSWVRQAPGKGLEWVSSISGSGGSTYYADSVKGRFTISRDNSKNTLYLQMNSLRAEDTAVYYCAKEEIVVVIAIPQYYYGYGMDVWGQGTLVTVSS
VL: B1 VL
notes: as for B1
For B4, the “ECL signal ratio (column head gives no unit)” value in [1] stood at 1.7; in assay [2] it was 1.1; in assay [3], 3.1; in assay [4], 1.2; in assay [5], 1.3; in [6], 1.3. Also, the “ECL signal ratio (column head gives no unit)” value came to 2.2 in assay [7] and 1.3 in assay [8].

B5: Fab VH3-23_IGHD2-21*01>3_IGHJ6*01 H100E/S108P/Y113G (EPG) Y109T & V2-13_IGLJ2*01 (Fab, V domains shown)
VH: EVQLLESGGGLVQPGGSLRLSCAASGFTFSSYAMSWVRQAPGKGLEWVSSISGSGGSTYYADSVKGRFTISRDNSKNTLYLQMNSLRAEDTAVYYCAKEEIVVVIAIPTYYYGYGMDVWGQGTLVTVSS
VL: B1 VL
notes: as for B1
As to B5, the “ECL signal ratio (column head gives no unit)” value in assay [1] was 1.4; in assay [2], 1.3; in assay [3] it was 6; in assay [4], 1.5; in assay [5], 1.7; in assay [6] it was 1.1. For the same molecule, the “ECL signal ratio (column head gives no unit)” value in assay [7] turned out to be 2.1; in assay [8] it was 1.7.

B6: Fab VH5-51_IGHD5-18*01>3_IGHJ4*01 G100K/G104T (H:KT) & V3-4_IGLJ1*01 G95A (Fab, V domains shown)
VH: EVQLVQSGAEVKKPGESLKISCKGSGYSFTSYWIGWVRQMPGKGLEWMGIIYPGDSDTRYSPSFQGQVTISADKSISTAYLQWSSLKASDTAMYYCARRKYSYTYDYFDYWGQGTLVTVSS
VL: QTVVTQEPSFSVSPGGTVTLTCGLSSGSVSTSYYPSWYQQTPGQAPRTLIYSTNTRSSGVPDRFSGSILGNKAALTITGAQADDESDYYCVLYMASGISYVFGTGTKVTVL
notes: Fab; Expressed from Plasmid A (CH1, His6 and Flag tags) and Plasmid E (lambda CL); also called KT & G95A
As for B6, the ECL signal turned out to be 637 in assay [9], 657 in assay [10], 345 in assay [11] and 10400 in assay [12].

B7: Fab VH5-51_IGHD5-18*01>3_IGHJ4*01 G100K/G104T G24T/S28R/G35V (H:KT TRV) & V3-4_IGLJ1*01 S96L (Fab, V domains shown)
VH: B6 VH with G24T, S28R, G35V
VL: B6 VL with A95G, S96L
notes: Tested as Fab expressed in E. coli
As for B7, the “ELISA Signal-blank (100 nM Fab)” value in assay [13] was 0.355.

B8: Fab VH5-51_IGHD5-18*01>3_IGHJ4*01 G100K/G104T G24T/S28R/G35V (H:KT TRV) & V3-4_IGLJ1*01 S96M (Fab, V domains shown)
VH: B6 VH with G24T, S28R, G35V
VL: B6 VL with A95G, S96M
notes: as for B7
As for B8, in assay [13], the “ELISA Signal-blank (100 nM Fab)” value is 0.358.

B9: Fab VH5-51_IGHD5-18*01>3_IGHJ4*01 G100K/G104T G24T/S28R/G35V (H:KT TRV) & V3-4_IGLJ1*01 S96E (Fab, V domains shown)
VH: B6 VH with G24T, S28R, G35V
VL: B6 VL with A95G, S96E
notes: as for B7
Turning to B9, the “ELISA Signal-blank (100 nM Fab)” value in assay [13] stood at 0.439.

B10: Fab VH5-51_IGHD5-18*01>3_IGHJ4*01 G100K/G104T G24T/S28R/G35V (H:KT TRV) & V3-4_IGLJ1*01 S96P (Fab, V domains shown)
VH: B6 VH with G24T, S28R, G35V
VL: B6 VL with A95G, S96P
notes: as for B7
With B10, in assay [13], the “ELISA Signal-blank (100 nM Fab)” value came out at 0.813.

B11: Fab VH5-51_IGHD5-18*01>3_IGHJ4*01 G100K/G104T G24T/S28R/G35V (H:KT TRV) & V3-4_IGLJ1*01 S96R (Fab, V domains shown)
VH: B6 VH with G24T, S28R, G35V
VL: B6 VL with A95G, S96R
notes: as for B7
As for B11, the “ELISA Signal-blank (100 nM Fab)” value in assay [13] turned out to be 0.499.

B12: Fab VH5-51_IGHD5-18*01>3_IGHJ4*01 G100K/G104T (H:KT) & V3-4_IGLJ1*01 L92A (Fab, V domains shown)
VH: B6 VH
VL: B6 VL with L92A, A95G
notes: Fab; Expressed from Plasmid A (CH1, His6 and Flag tags) and Plasmid E (lambda CL); also called KT & L92A
With B12, the ECL signal in [9] turned out to be 582; in assay [11], 326; in assay [12], 11700; in [14] it was 1010.

B13: Fab VH5-51_IGHD5-18*01>3_IGHJ4*01 G100K/G104T G24T/S28R/G35V (H:KT TRV) & V3-4_IGLJ1*01 S96V (Fab, V domains shown)
VH: B6 VH with G24T, S28R, G35V
VL: B6 VL with A95G, S96V
notes: as for B7
In the case of B13, the “ELISA Signal-blank (100 nM Fab)” value in assay [13] came to 0.452.

B14: Fab H:APFF LTH & L6_IGKJ1*01 S28N/S30D/S31H (NDH) (Fab, V domains shown)
VH: QVQLVQSGAEVKKPGASVKVSCKASGYTFTSYYMHWVRQAPGQGLEWMGIILPTGHSTSYAQKFQGRVTMTRDTSTSTVYMELSSLRSEDTAVYYCAREEYAPFSAEYFQFWGQGTLVTVSS
VL: EIVLTQSPATLSLSPGERATLSCRASQNVDHYLAWYQQKPGQAPRLLIYDASNRATGIPARFSGSGSGTDFTLTISSLEPEDFAVYYCQQRSNWPPWTFGQGTKVEIKR
notes: Fab; also called H:APFF LTH & L:NDH
In the case of B14, the “fold binding affinity against the antibody mutants with heavy chain H:APFF ALTH” value (from here on “fold binding affinity”) in assay [15] is ~10 fold.

B15: Fab H:APFF VLTH & L6_IGKJ1*01 S28N/S30D/S31H S52L/A55G (NDH LG) (Fab, V domains shown)
VH: B14 VH with I51V
VL: B14 VL with S52L, A55G
notes: Fab; also called H:APFF VLTH & L:NDH LG
Turning to B15, the “fold binding affinity” value in [15] is ~10 fold.

B16: Fab H:APFF LTH & L6_IGKJ1*01 S28N/S30D/S31H S52L/A55S (NDH LS) (Fab, V domains shown)
VH: B14 VH
VL: B14 VL with S52L, A55S
notes: Fab; also called H:APFF LTH & L:NDH LS
Turning to B16, the “fold binding affinity” value in assay [15] was ~10 fold.

B17: Fab H:APFF VLTH & L6_IGKJ1*01 S28N/S30D/S31H (NDH) (Fab, V domains shown)
VH: B14 VH with I51V
VL: B14 VL
notes: Fab; also called H:APFF VLTH & L:NDH
For B17, the “fold binding affinity” value in [15] is ~10 fold.

B18: Fab H:APFF LTH & L6_IGKJ1*01 S28N/S30D/S31H S52L/A55G (NDH LG) (Fab, V domains shown)
VH: B14 VH
VL: B14 VL with S52L, A55G
notes: Fab; also called H:APFF LTH & L:NDH LG
In the case of B18, the “fold binding affinity” value in assay [15] was ~10 fold.
